Test results from publication PMC5150216, “Actin activates Pseudomonas aeruginosa ExoY nucleotidyl cyclase toxin and ExoY-like effector domains from MARTX toxins” (Nature Communications, 2016).

Key:
[1] = target: T1, α-actin from rabbit skeletal muscle (rabbit, UniProt P68135 1-377); experiment: co-sedimentation; as a6, F-actin with 6 μM phalloidin; settings: both partners purified
[2] = target: T1, α-actin from rabbit skeletal muscle; experiment: co-sedimentation; settings: both partners purified

B1: MBP-ExoY^K81M-ST (enzyme)
chain: MRIDGHRQVVSNATAQPGPLLRPADMQARALQDLFDAQGVGVPVEHALRMQAVARQTNTVFGIRPVERIVTTLIEEGFPTMGFSVKGKSSNWGPQAGFICVDQHLSKREDRDTAEIRKLNLAVAKGMDGGAYTQTDLRISRQRLAELVRNFGLVADGVGPVRLLTAQGPSGKRYEFEARQEPDGLYRISRLGRSEAVQVLASPACGLAMTADYDLFLVAPSIEAHGSGGLDARRNTAVRYTPLGAKDPLSEDGFYGREDMARGNITPRTRQLVDALNDCLGRGEHREMFHHSDDAGNPGSHMGDNFPATFYLPRAMEHRVGEESVRFDEVCVVADRKSFSLLVECIKGNGYHFTAHPDWNVPLRPSFQEALDFFQRKV
notes: also called His-MBP-ExoY^K81M-ST; source: expressed from pEA12 (Ptac promoter); purified under non-denaturing conditions (HisTrap, StrepTrap, Superdex 200); not shown: His-tag, N-terminal, kept; MBP, N-terminal, kept; Strep-tagII, C-terminal, kept
Kd [1]: 1600 to 1800 nM
Kd [2]: 1600 ± 300 nM
stoichiometry N [2]: 1
